These results are taken from patent US7563585B2, “Methods of assaying compounds that modulate IL-4 receptor-mediated IgE synthesis utilizing a thioredoxin-like 32 kDa protein (TXNL)” (Rigel Pharmaceuticals, Inc., priority 2002, dated 2009).

In assay [1] the test system is IL-4 induced germline ε transcription (ε promoter reporter in A5T4 cells). As to the kind of experiment: Re-infection assay in naïve A5T4 cells (BFP− vs BFP+ populations, FACS of GFP). Format: cell-based, human. Particulars: A5T4 reporter line. Here is the method: The ability of peptide DR15wt (SEQ ID NO:1) to inhibit germline ε transcription was confirmed in naïve cells. Briefly, Phoenix cells were transfected with a retroviral vector encoding a BFP-DR15wt (SEQ ID NO:1) peptide fusion as described in WO 99/58663 and WO 97/27213. Naïve A5T4 cells were infected with the resultant virions and grown for 3 days. The infected cells were stimulated with IL-4 (60 U/mL) and, after 3 days, the cells were assessed by FACS for BFP and GFP. […] The BFP fluorescence data corresponding to the BFP^+ and BFP^− populations are provided in Panel A. The GFP fluorescence data corresponding to the BFP^+ and BFP^− populations are presented in Panel B. The reporter ratio for this purpose is determined as the geometric mean of the GFP fluorescence of the BFP^− population divided by the geometric mean of the GFP fluorescence of the BFP^+ population. The reporter ratio for the DR15 in this re-infection assay was 1.69.
A collection of DR15 mutants was generated by replacing double amino acid residues in the sequence of DR15wt (SEQ ID NO:1) with a different amino acid, typically an alanine, as described in copending application Ser. No. 10/095,659. The functional profiles for the mutants derived from DR15wt (SEQ ID NO:1) was obtained by constructing and screening for activity in the A5T4 reporter cell line in the manner described above. […]

For assay [2], the target named is T1, human thioredoxin-like 32 kDa protein (hTXNL) (Homo sapiens, UniProt O43396).
T1 construct: expressed in transfected cells; prey cDNA from a library of the A5T4 reporter line (derived from BJAB B-cells)
T1 sequence (O43396 1-289): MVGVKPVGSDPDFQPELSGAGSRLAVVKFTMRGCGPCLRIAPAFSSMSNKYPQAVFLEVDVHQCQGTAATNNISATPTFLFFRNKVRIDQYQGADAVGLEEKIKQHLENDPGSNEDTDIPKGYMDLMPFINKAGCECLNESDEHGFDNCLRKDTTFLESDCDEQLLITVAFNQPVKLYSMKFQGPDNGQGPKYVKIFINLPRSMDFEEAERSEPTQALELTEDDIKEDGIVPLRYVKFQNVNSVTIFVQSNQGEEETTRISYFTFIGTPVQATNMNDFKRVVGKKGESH
Nature of the assay: β-galactosidase yeast two hybrid (YTH) interaction assay. Format: binding. Here is the method: Potential binding partners for peptide DR15wt were identified in a β-galactosidase yeast two-hybrid (YTH) assay using peptide DR15wt as bait and a cDNA library constructed from the A5T4 reporter cell line as prey. Binding was assessed by β-galactosidase quantification using BetaFluor (Novagen) as a substrate. A negative interaction control (no cDNA fused downstream of the GAL4 activation domain sequence) was also run. A general outline of the YTH assay is illustrated in FIG. 5A. Following clustering, filtering to remove non-specific bait hits (e.g., GFP and BFP), singletons and clusters recognized by 10 or more cDNA baits (based upon historical YTH assays), and prioritization, 10 prey clones were identified as hits.
Potential targets identified in the YTH assay were reconfirmed as generally outlined in FIG. 6. The cDNA clones identified as hits in the YTH assay were purified and rescreened for interaction with the DR15wt (SEQ ID NO:1) peptide in a YTH assay. The hit clones were also screened in a control assay for interaction with the BFP using a vector (pGBKT7) that contained only the BFP and not the DR15 peptide. At this stage, 8 putative target clones remained.
The interaction of DR15wt (SEQ ID NO:1) peptide and its mutants with the clones identified as potential targets for the peptide DR15wt (SEQ ID NO:1) was then quantified in a galactosidase YTH assay. The YTH assay was performed in the manner described above. A general outline of this YTH assay is illustrated in FIG. 5B. For each clone tested, an interaction profile was developed by comparing the β-galactosidase activity of each mutant to that of the wild type peptide as described above.
The interaction of these IOF and ROF mutants with different polypeptides encoded by the putative target clones were quantified using the YTH assay described above. Based on the YTH assay, for each putative target, a subset of the mutants representing each of the above functional categories, when available, were categorized into the following four interaction categories: (1) reduction of interaction (ROI); (2) loss of interaction (LOT); (3) increase of interaction (101); and (4) interactionally neutral (N), by assessing the binding affinity ratio of the mutant peptide and the wild type peptide (β-gal activity of mutant/wild type) to the putative target. For the YTH interaction assay mutants DR15PE (SEQ ID NO:2), DR15QI (SEQ ID NO:3), and DR15YM (SEQ ID NO:4) as well as originally identified DR15wt (SEQ ID NO:1), were used.

The subject of assay [3] is endogenous α promoter (ST486 cells). Nature of the assay: TAQMAN assay of endogenous germline α promoter transcription in ST486 cells. Format: cell-based. Particulars: ST486 cells stimulated with TGF-β 40 ng/ml; average of 3 values; p=0.7797. Here is the method:
The assay was similar to that described in the immediately preceding section, except that ST486 cells (ATCC # CRL-1647) engineered to express the tetracycline-regulated transactivator were infected and the infected cells were stimulated with TGF-β (40 ng/ml; Peprotech). The primers and probe, which are specific for the transcription product driven by the ST486 endogenous α promoter, were as follows (the probe was labeled at the 5′-end with Fam and at the 3′-end with Tamra): […]

For the sequence “AARCYMRMPPQSLADAQIYS (Peptide generated by a combinatorial library) [DR15PE, dual alanine mutant of DR15wt]”, in assay [1], the “functional category based on reporter ratio compared to DR15wt” value is “IOF (An increase of function mutant (IOF) shows a >50% increase in reporter ratio)”. Further, the “binding to hTXNL in yeast two hybrid interaction assay” value (shortened to “binding to hTXNL”) in assay [2] is recorded as “found to bind”.

Take “PERCAARMPPQSLADAQIYS (peptide generated from combinatorial library) [DR15YM, dual alanine mutant of DR15wt]”: the “binding to hTXNL” value in assay [2] is on record as “found to bind”.

Consider “PERCYMRMPPQSLADAAAYS (peptide generated from combinatorial library) [DR15QI, dual alanine mutant of DR15wt]”, for which the “binding to hTXNL” value in assay [2] is on record as “found to bind”.

In the case of “PERCYMRMPPQSLADAQIYS (peptide generated from a combinatorial library) [DR15wt, 20-mer peptide from a random retroviral library, expressed as BFP-peptide fusion]”, in assay [3], the “endogenous α inhibition ratio” value is reported as 0.98. Besides, the “binding to hTXNL” value in assay [2] is listed as “found to bind”.
